The target in data set [1] is T1, MstX (NCgl1216) (Corynebacterium glutamicum, UniProt Q8NR03).
T1 construct: gene Cgl1264; full length, 359 residues, 40,619 Da; pET28a His6 fusion from E. coli BL21(DE3), tag cleaved; monomer
In words: Mtr-coupled NADPH oxidation at […] nm (thiol transferase assay). It counts as biochemical. The note with it: 100 mM MSH, 300 μM NADPH, 5 μM Mtr, 50 mM potassium phosphate pH 7.6, 25 °C.

The target of data set [2] is T2, MstX (NCgl1216) (Corynebacterium glutamicum, UniProt Q8NR03, C262S).
T2 construct: gene Cgl1264
The experiment in a line: MALDI-TOF MS of S-mycothiolated protein. It counts as binding. The note with it: covalent; mixed disulfide at Cys67; formed with H2O2.

The test system of the next data set is CC(C)(C)OO. In words: purified protein. The note with it: 500 μM MSH, 4 μM Mtr, 250 μM NADPH, 1 mM EDTA, 50 mM Tris-HCl pH 7.5.
Substrate in the data set “purified protein”: O=C1O[C@H]([C@@H](O)CO)C(=O)C1=O
In words: purified protein. It counts as biochemical, Corynebacterium glutamicum. The note with it: 100 mM MSH, 300 μM NADPH, 5 μM Mtr, 50 mM potassium phosphate pH 7.6, 25 °C.

The subject of a further data set is CC(C)(OO)c1ccccc1. The experiment in a line: purified protein. The settings on record: 500 μM MSH, 4 μM Mtr, 250 μM NADPH, 1 mM EDTA, 50 mM Tris-HCl pH 7.5.

The term Km denotes the substrate concentration at which the rate is half of its maximum. On to `OCCSSCCO` [HED], for which the Km at MstX (NCgl1216) [1] came out at 192 ± 30 µM.
Turning to `CC(=O)N[C@@H](CS)C(=O)NC1[C@@H](O[C@@H]2[C@H](O)[C@H](O)[C@@H](O)[C@H](O)[C@H]2O)O[C@H](CO)[C@@H](O)[C@@H]1O` (stereo partly drawn) [MSH], the “MALDI-TOF MS of S-mycothiolated protein” value on MstX (NCgl1216) [2] is on record as “Pure S-mycothiolated MstX:C262S were confirmed by Matrix-Assisted Laser Desorption/Ionization Time of Flight Mass Spectrometry”.
As a reminder, the kcat is the maximal rate divided by the concentration of active sites. With “MstX (NCgl1216) (Corynebacterium glutamicum ATCC 13032)”, in the data set with CC(C)(C)OO, the Km came to 301.3 ± 46.62 µM and the kcat was 0.135 ± 0.006 s⁻¹.

B1: MstX (NCgl1216) (Corynebacterium glutamicum ATCC 13032) (protein)
chain: MANTSSDWAGAPQNASADGEFVRDTNYIDDRIVADVPAGSEPIAQEDGTFHWPVEAGRYRLVAARACPWAHRTVITRRLLGLENVISLGLTGPTHDVRSWTFDLDPNHLDPVLQIPRLQDAYFNRFPDYPRGITVPALVEESSKKVVTNDYPSITIDFNLEWKQFHREGAPNLYPAELREEMAPVMKRIFTEVNNGVYRTGFAGSQEAHNEAYKRLWVALDWLEDRLSTRRYLMGDHITEADIRLYPTLVRFDAVYHGHFKCGRNKITEMPNLWGYLRDLFQTPGFGDTTDFTEIKQHYYITHAEINPTRIVPVGPDLSGFATPHGREKLGGSPFAEGVTLPGPIPAGEEVKNPEPFQK
notes: full length, 359 residues, 40,619 Da; pET28a His6 fusion from E. coli BL21(DE3), tag cleaved; monomer
One may read the kcat/Km as the second-order rate constant that governs catalysis at low substrate concentration. On to B1, for which, in “purified protein”, the Km is 1115 ± 252 µM, the kcat amounted to 573 ± 44.3 s⁻¹ and the kcat/Km was determined as 571000 ± 410000 M⁻¹ s⁻¹. In the data set on CC(C)(OO)c1ccccc1, the Km came out at 328.1 ± 33.27 µM and the kcat worked out at 0.153 ± 0.005 s⁻¹.

The values are drawn from paper PMC6815410, “Characterization of Xi-class mycothiol S-transferase from Corynebacterium glutamicum and its protective effects in oxidative stress” (Microbial Cell Factories, 2019).
